The values below come from patent publication US20220308061A1.

In this assay the target is NY-ESO-1 peptide presented in the stimulated PBMC culture. The assay can be described thus: cell-based or functional assay.

Substance NY-ESO TCR (clone 1G4) yielded a percent of CD8+ T cells CD137+/NGFR+ after antigen stimulation (% of CD8+ T cells) of 0.69, a percent of CD8+ T cells IFNγ+/NGFR+ after antigen stimulation (% of CD8+ T cells) of 0.47 and a percent of CD8+ T cells TNFα+/NGFR+ after antigen stimulation (% of CD8+ T cells) of 0.41.
